From patent publication US20230332166A1, “FORMATE-INDUCIBLE PROMOTERS AND METHODS OF USE THEREOF” (Imperial College Innovations Ltd, priority 2020, published 2023)

B1: Yali0E14256: Y. lipolytica FDH gene; promoter region SEQ ID NO: 8 (1 Kb) and 24 (1.5 Kb) (nucleic acid, listed as Yarrowia lipolytica)
DNA: ATGAAGATCCTTCTTGTTCTCTACGACGCCGGTTCCCACGCCAAGGATGAGCCTCGACTTCTCGGATGTACCGAGAACGAGCTTGGTCTCCGTGACTGGATCGAGTCCCAGGGACACACCTTGGTGACCACCTCCGACAAGGACGGTGAGAACTCAACCGTCGACAAGGAGATTGTGGATGCTGAGATTGTTATCACCACCCCCTTCCACCCCGCTTACATCACCAAGGAGCGAATTGACAAGGCCAAGAAGCTCAAGATCTGTATCACTGCCGGTGTTGGTTCCGACCATGTCGACCTTGATGCCGCCAACGCCCGAGACATTGCCGTCCTCGAGGTTACCGGATCTAACGTCCAGTCCGTCGCTGAGCACGTTGTCATGACCATGCTGGTTCTGGTCCGAAACTTCGTCCCCGCCCACGAGCAGATCATCGAGGGTGGCTGGAATGTCGCTGCTGTCGCCAAGGACTCTTACGACATTGAGGGTAAGGTCATTGGTACTGTCGGCGGTGGCCGAATTGGTCAGCGAGTCCTGAAGCGACTTGCACCCTTCAACCCCATGGAGCTCCTCTACTACGACTACCAGCCCATGCCCAAGGACGTGGAGAAGGAGATTGGCTGCCGACACGTCCCTGATCTTAAGGAGATGCTCTCTGTCTGTGACATTGTTACCATCAACTGTCCTCTCCACGACTCTACCAAGGGTATGTTCAACAAGGAACTCATCTCCCACATGAAGGATGGTGCTTGGCTCGTCAACACCGCCCGAGGTGCCATCTGTGTCACTGACGACATTGTTGAGGCCCTCAAGTCCGGTAAGATCCGAGGCTACGGTGGTGATGTCTGGAACCCCCAGCCTGCCCCCAAGGACCACCCCTGGAGATACATGCGAAACAAGTGGGGCGGTGGAAACGCCATGACCCCCCATATCTCCGGTACCTCCATCGATGCCCAGGGCCGATACTCCGAGGGTACCAAGAACATTCTCGAGGTCTACTTCTCCGGAAAGCAGAACTACCGACCTCAGGATGTCATCTGTATCAACGGCCACTACGGCACTAAGGCTTACGGTGACGACAAGGAGCACAAGGCCCACGTTTCCAAATAAGCACTTTAGCTGTTTAACTTATAAGCAATTGACTACTAGAATTTGC
modifications: YALI0E14256g
B2: Yali0C14344: putative Y. lipolytica FDH gene; promoter region SEQ ID NO: 7 (1 Kb) and 23 (1.5 Kb) (nucleic acid, listed as Yarrowia lipolytica)
DNA: ATGAAGGTCCTTCTTGTTCTATACGATGCCGGCTCCCACGCCAAGGATGAGCCAAAGCTACTTGGATGCACCGAGAACGAGCTCGGAATCAGAGACTGGCTCGAGTCACAGGGCCACACTCTTGTCACCACCTCTTCCAAGGACGGTGCCCACTCTGTGCTTGACAAGGAGATTGTCGATGCCGATGTAGTCATCACCACCCCTTTCCACCCCGGCTACATCAACAAGGAGCGAATTGACAAGGCCAAAAAGCTCAAGATCTGCATCACCGCTGGTGTTGGCTCCGACCACGTCGATCTCGACGCAGCCAACGCCCGAGATATCTCTGTTCTTGAGGTTACTGGTTCTAATGTCCAGTCTGTCGCAGAGCACGTCGTTATGACCATGCTGGTGCTGGTCCGAAACTTTGTGCCCGCCCACGAGCAGATCATCGAGGGCGGCTGGAATGTGGCTGCTGTCGCCAAGGACTCGTACGATCTCGAGGGAAAGGTCATTGGCACCGTTGGAGGCGGTCGAATCGGCCAGCGAGTGCTCAAGCGATGCAAGCCCTTTGACCCCATGGAGATGCTCTACTACGACTACCAGGCTATGCCAGCTGATGTGGAGAAGGAGATTGGATGCCGACGAGTCGAGTCTCTGGAGGAGAAGCTCTCTCTCTGTGACGTTGTCACCATCAACTGTCCCCTTCACGCCTCCACCAAGGGTCTCTTCAACAAGGAGCTCATTTCCCACATGAAGGACGGCGCTTGGCTCGTCAACACTGCTCGAGGAGCCATCTGCGTCACCGAGGACATTGTCGACGCTCTCGAGTTGGGCAAGATCCGAGGATATGGCGGTGACGTCTGGTTCCCCCAGCCTGCCTCCAAGGACCACCCCTGGAGAACCATGCGAAATAAGTACGGCGGTGGAAACGCCATGACTCCCCACATCTCCGGCACTTCCATCGACGCCCAGGGCCGATACGCTGAGGGTACCAAGAAGATCCTCGAGGTCTTTTTCTCGGGAAAGCAGAATTACAGACCCCAGGATATCATCTGTATCAACGGCCATTATGGTACAAAGGCCTACGGTGACGACAAGGAGCACAAGGGGCACCAGCAGAAGTGA
modifications: YALI0C14344g
B3: Yali0F28765: putative Y. lipolytica FDH gene; its formate-inducible promoter region is SEQ ID NO: 11 (1 Kb) and 27 (1.5 Kb) (nucleic acid, listed as Yarrowia lipolytica)
DNA: ATGAAGGTCCTTCTCATTCTCTACGACGCCGGCTCCCACGCTGTTGATGAGCCCAAACTACTCGGATGCACCGAGAACGAGCTCGGTATCCGATCATGGCTCGAGTCCCAGGGCCATACTCTGGTAACCACCTCTTCCAAGGATGGCGATGACTCTGTCCTCGACAAGGAAATTGTCGACGCCGATGTCGTCATCACCACTCCCTTCCATCCCGGTTACATTACCCGAGAGCGAATTGCCAAGGCCAAGAACCTCAAAATATGTGTTACTGCAGGTGTTGGTTCCGACCATGTCGACCTTGATGCCGCCAACGAGCGAGACATTGCCGTTCTCGAGGTCACTGGTTCCAACGTCCAATCCGTCGCTGAGCACGTCGTCATGACCATGCTCGTCCTCGTCCGAAACTTTGTCCCCGCTCACGAGCAGGTCATGGCTGGTGGTTGGGATGTTGCTGCTGTCGCCAAGGACTCTTATGACATCGAGGGTAAGGTCATTGGTACCGTTGGTGGTGGCCGAATTGGTCAGCGAGTCCTCAAGCGAGTGGCTCCCTTCAACCCTAAGGAGATGCTCTACTACGACTACCAAGGACTTTCTGCTGAGACCGAGCAGGAGCTCAACTGTCGACGAGTCGAGAAGCTTGAAGATATGCTTGCCCAATGTGACATTGTCACCATTAACTGTCCTCTCCACGAGTCTACCAAGGGCCTCTTCAACAAGGAGATGCTCTCTCACATGAAGAAGGGTGCTTGGCTTGTCAACACCGCTCGAGGAGCTATCTGTGTCAAGGAGGATGTCGCCGAGGCTCTTGCCAACGGCCAGCTTCGAGGCTACGGTGGTGATGTGTGGTTCCCTCAGCCAGCCCCTGCCGACCACCCTTGGAGATCGATGCGAAACAAGTACGGCGCCGGTAACGCTATGACCCCACACATATCTGGTACTTCCATTGACGCCCAGGCCCGATACGCCGAGGGCACCAAGAACATTCTCGAGGTCTTCTTCTCCGGAAAGCAGGACTACCGACCCCAGGATATCATCTGTATCAACGGTCACTACGGTACCAAGGCTTACGGCGACGACAAGGAGCACGCCAAGAAATAGATAATATTCATTAACATACAAATACAGTCTACAGTCCTATATCGATTCGGTCGCTTCGAG
modifications: YALI0F28765g
B4: Yali0F15983: putative Y. lipolytica FDH gene; promoter region SEQ ID NO: 3 (1 Kb) and 19 (1.5 Kb) (nucleic acid, listed as Yarrowia lipolytica)
DNA: ATGAAGGTCCTTCTTATTCTCTACTCTGCCGGTTCTCACGCCGTTGACGAGCCCAAGCTACTCGGTTGCACTGAGAACGAGCTCGGTCTCCGAAAGTGGCTCGAGTCCCGGGGCCACACGCTTGTGACCACCTCTTCAAAGGAGGGAGCCGACTCTGTGCTCGACAAGGAGATTGTCGATGCCGACATTGTCATCACTACTCCCTTCCACCCCGGTTACATCACCCGAGAGCGAATCGCCAAGGCCAAGAACCTCAAAATTTGCATCACTGCCGGTGTTGGTTCGGACCACGTCGATCTTGATGCTGCCAACGAGCGAGATATTGCCGTTCTCGAGGTCACTGGCTCCAACGTGCAGTCTGTGGCTGAGCACGTTGTCATGACCATGCTGGTCCTGGTCCGAAACTTTGTGCCTGCCCACGAGCAGGTCATGGCTGGTGGCTGGGACGTTGCTGCTGTCGCCAAGGACTCCTACGACATTGAGGGAAAGGTCATTGGTACTGTGGGAGGTGGCCGAATTGGTCAGCGAGTCCTAAAGCGAGTTGCTCCCTTCAACCCTAAGGAGATGCTCTACTACGACTACCAGGGTCTGTCTGCTGAGACCGAGAAGGAGCTGAACTGCCGACGAGTCGAGAAGCTCGAGGATATGCTTGCCCAGTGTGATATCGTCACCATCAACTGTCCCCTCCACGAGTCCACCAAGGGTCTCTTCAACAAGGAGATGCTCTCTCACATGAAGAAAGGTGCCTGGCTTGTCAACACCGCTCGAGGAGCCATCTGTGTCAAGGAAGACGTTGCTGAGGCTCTCAAGAACGGCCAGCTGCGAGGCTACGGAGGTGACGTCTGGTTCCCCCAGCCTGCTCCCGCTGACCACCCCTGGAGATCCATGCGAAACAAGTACGGAGCTGGAAACGCCATGACCCCCCATATCTCCGGTACTTGCATCGATGCCCAGGTTCGGTACGCCCAGGGAACCAAGAACATTCTCGACATGTTCTTCTCCGGTAAGCAGGACTACCGACCCCAGGACATCATCTGCATCAACGGTCACTACGGAACCAAGGCCTACGGTGATGACAAGGAGCATGCTAAAAAGTAGGCTGGACGTCGAAATAAACACATTGTTCATCTCTGGGTAGCCCAATAGTAAATAGGTAAGCTGTGATCATTA
modifications: YALI0F15983g

Test system: Y. lipolytica JMY2900
Test: qPCR of putative FDH gene transcription upon induction with sodium formate
Assay type: cell-based, Yarrowia lipolytica
Settings: YNB with 0.5% sodium formate, 6 h, 28° C., vs absence of formate; qPCR normalised to actin
Procedure: FIG. 3: Transcription levels of the FDH genes of Yarrowia lipolytica W29 measured by qPCR, normalised to actin (ACT1) expression. Yarrowia lipolytica was grown in YNB supplemented with 1% glucose and 0.5% yeast extract at 15 h at 28° C., before being washed and transferred into YNB with 0.5% of sodium formate for induction and grown for 6 h.
The inducibility of the putative FDH genes with formate was then tested by qPCR. YALI0E14256g1_1 and the nine putative FDH with the highest % identity to YALI0E14256g1_1 were selected for testing. Y. lipolytica JMY2900 was cultured in YNB media supplemented with 1% glucose and 0.5% yeast extract for 15 h at 28° C. Cells were washed with distilled water and cultured in fresh liquid YNB media supplemented with 0.5% sodium formate at 28° C. with agitation at 160 rpm, before being harvested at 6 h post-inoculated. Cells were frozen in liquid nitrogen and stored at −80° C. RNA was subsequently extracted using the RNeasy Mini Kit (Qiagen), and 2 μg was treated with DNAse (Ambion; Life Science Technologies, Saint-Aubain, France). cDNA was synthesised using the Maxima First Strand cDNA synthesis kit (Thermo Fischer Scientific, Villebon sur Yvette, France). qPCR was then performed using the SYBRgreen mastermix (Thermo Fischer Scientific) with gene-specific primers designed using Primer3 software. Relative expression levels were calculated using ΔCT and ΔΔCT methods. Expression levels were normalised to actin.

Row | Molecule | Fold increase on induction (fold change expression of putative FDH genes upon induction with sodium formate) [fold]
1 | B1 | 23.9
2 | B2 | 4.9
3 | B3 | 8.1
4 | B4 | 4.2
